In patent publication CN111662379A:

Tests used:
[1] = target: T1, 重组SARS-CoV-2刺突蛋白胞外区 (extra cellular domain of spike protein, S-ECD) (SARS-CoV-2), P0DTC2; assay: indirect ELISA, S-ECD coated at 1μg/ml; conditions: remark: other sources report otherwise
[2] = target: T1, 重组SARS-CoV-2刺突蛋白胞外区 (extra cellular …); assay: SPR, Biacore 8K, S-ECD immobilised on a CM5 chip, antibody injected at 125nM~7.8nM; conditions: remark: other sources report otherwise

B1: FC05 (antibody)
chain 1: EVQLLEQSGAEVKKPGASVRVSCKVSGYTLPEVAMHWVRQAPGKGLEWMGGFDPEDGETIYAQKFQGRVTMTEDTSTDTAYMELSSLRSEDTAVYYCATTTPFSSSFWFDPWGQGTLVTVSS
chain 2: QSVLTQAPSVSGAPGQKVTISCSGSSSNIGNNYVSWYQQLPGTAPKLLIYDNNKRPSGIPDRFSGSKSGTSATLGITGLQTGDEADYYCGTWDSSLSAVVFGGGTKLTVL
- 抗体滴度 (dilution 1:x from 1mg/mL) [1]: 320000
- Kd [2]: 0.1 nM
